# Test results taken from patent US20150203577A1 (Chugai, published 2015).
# T1: mouse FcγRII extracellular domain with C-terminal His tag (mouse, UniProt P08101 30-210)
# T1 construct: Made on the basis of NCBI NP-034317.1; also called mFcγRII; mFcgRII
# T1 sequence: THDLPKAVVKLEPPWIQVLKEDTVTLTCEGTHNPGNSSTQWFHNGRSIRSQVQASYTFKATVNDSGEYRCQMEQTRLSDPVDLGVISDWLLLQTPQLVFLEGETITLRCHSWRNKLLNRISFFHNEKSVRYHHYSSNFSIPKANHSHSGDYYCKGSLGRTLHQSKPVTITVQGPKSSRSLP
# T2: mouse FcγRIII extracellular domain with C-terminal His tag (mouse, UniProt P08508 31-215)
# T2 construct: Made on the basis of NCBI NP-034318.2; also called mFcγRIII; mFcgRIII
# T2 chain: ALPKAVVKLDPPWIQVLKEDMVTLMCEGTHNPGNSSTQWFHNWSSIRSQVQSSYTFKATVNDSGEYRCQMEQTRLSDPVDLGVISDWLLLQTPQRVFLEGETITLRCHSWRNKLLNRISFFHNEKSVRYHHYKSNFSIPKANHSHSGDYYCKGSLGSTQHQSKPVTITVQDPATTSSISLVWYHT
# How the values were obtained:
# [1] = biological target: T1, mouse FcγRII extracellular domain with …; assay: SPR Biacore T200
# Description: (§1) Each altered antibody was analyzed for its interaction with each Fcγ receptor prepared above using Biacore T100 (GE Healthcare Japan Corp.), Biacore T200 (GE Healthcare Japan Corp.), Biacore A100, or Biacore 4000. The running buffer used was HBS-EP+ (GE Healthcare Japan Corp.). The assay temperature was set to 25° C. The sensor chips used were chips prepared by immobilizing Protein L (ACTIGEN or BioVision) onto Series S Sensor Chip CM5 (GE Healthcare Japan Corp.) or Series S Sensor Chip CM4 (GE Healthcare Japan Corp.) by the amine coupling method.
# (§2) In order to calculate the KD value of each altered antibody for FcγR, kinetic analysis was conducted according to the following method: first, the antibody of interest was captured onto any of these chips and allowed to interact with mFcγR diluted with a running buffer. For the obtained sensorgram, the assay results were globally fit into the 1:1 Langmuir binding model using Biacore Evaluation Software to calculate an association rate constant ka (L/mol/s) and a dissociation rate constant kd (1/s). From these values, the dissociation constant KD (mol/L) was calculated.
# [2] = biological target: T2, mouse FcγRIII extracellular domain with …; assay: SPR Biacore T200
# Description: as §1, §2
# [3] = biological target: T1, mouse FcγRII extracellular domain with …; assay: SPR Biacore T200; KD mFcγRIII / KD mFcγRII
# Description: as §1, §2
Binder,relative mFcγRII-binding activity (mIgG1 = 1) [1],relative mFcγRIII-binding activity (mIgG1 = 1) [2],relative I/A (mFcγRII selectivity) (mIgG1 = 1) [3],Kd [1] [nM],Kd [2] [nM],I/A (mFcγRII selectivity) [3]
"H237-MB322/MRAL-k0 (antibody, mouse IgG1, kappa, copies: 2 + 2) heavy: QVQLQESGPGLVKPSETLSLTCAVSGHSISHDHAWSWVRQPPGEGLEWIGFISYSGITNYNPSLQGRVTISRDNSKNTLYLQMNSLRAEDTAVYYCARSLARTTAMDYWGEGTLVTVSSAKTTPPSVYPLAPGSAAQTNSMVTLGCLVKGYFPEPVTVTWNSGSLSSGVHTFPAVLQSDLYTLSSSVTVPSSTWPSETVTCNVAHPASSTKVDKKIVPRDCGCKPCICEDEEVEDVFIFPPKPKDVLTITLTPKVTCVVVDISKDDPEVQFSWFVDDVEVHTAQTQPREEQFNSTFRSVSELPIMHQDWLNGKEFKCRVNSAAFPAPIEKTISKTKGRPKAPQVYTIPPPKEQMAKDKVSLTCMITDFFPEDITVEWQWNGQPAENYKNTQPIMDTDGSYFVYSKLNVQKSNWEAGNTFTCSVLHEGLHNHHTEKSLSHSPGK light: not shown",9.2,1.3,7.3,,,
"H237-MB341/MRAL-k0 (antibody, mouse IgG1, kappa, copies: 2 + 2) heavy: QVQLQESGPGLVKPSETLSLTCAVSGHSISHDHAWSWVRQPPGEGLEWIGFISYSGITNYNPSLQGRVTISRDNSKNTLYLQMNSLRAEDTAVYYCARSLARTTAMDYWGEGTLVTVSSAKTTPPSVYPLAPGSAAQTNSMVTLGCLVKGYFPEPVTVTWNSGSLSSGVHTFPAVLQSDLYTLSSSVTVPSSTWPSETVTCNVAHPASSTKVDKKIVPRDCGCKPCICEDWEVEDVFIFPPKPKDVLTITLTPKVTCVVVDISKDDPEVQFSWFVDDVEVHTAQTQPREEQFNSTFRSVSELPIMHQDWLNGKEFKCRVNSAAFPAPIEKTISKTKGRPKAPQVYTIPPPKEQMAKDKVSLTCMITDFFPEDITVEWQWNGQPAENYKNTQPIMDTDGSYFVYSKLNVQKSNWEAGNTFTCSVLHEGLHNHHTEKSLSHSPGK light: not shown",268,11.5,23.4,0.782,24.6,31.4
"H237-MB339/MRAL-k0 (antibody, mouse IgG1, kappa, copies: 2 + 2) heavy: QVQLQESGPGLVKPSETLSLTCAVSGHSISHDHAWSWVRQPPGEGLEWIGFISYSGITNYNPSLQGRVTISRDNSKNTLYLQMNSLRAEDTAVYYCARSLARTTAMDYWGEGTLVTVSSAKTTPPSVYPLAPGSAAQTNSMVTLGCLVKGYFPEPVTVTWNSGSLSSGVHTFPAVLQSDLYTLSSSVTVPSSTWPSETVTCNVAHPASSTKVDKKIVPRDCGCKPCICEVWEVEDVFIFPPKPKDVLTITLTPKVTCVVVDISKDDPEVQFSWFVDDVEVHTAQTQPREEQFNSTFRSVSELPIMHQDWLNGKEFKCRVNSAAFPAPIEKTISKTKGRPKAPQVYTIPPPKEQMAKDKVSLTCMITDFFPEDITVEWQWNGQPAENYKNTQPIMDTDGSYFVYSKLNVQKSNWEAGNTFTCSVLHEGLHNHHTEKSLSHSPGK light: not shown",197,11.6,17,,,
"H237-MB377/MRAL-k0 (antibody, mouse IgG1, kappa, copies: 2 + 2) heavy: QVQLQESGPGLVKPSETLSLTCAVSGHSISHDHAWSWVRQPPGEGLEWIGFISYSGITNYNPSLQGRVTISRDNSKNTLYLQMNSLRAEDTAVYYCARSLARTTAMDYWGEGTLVTVSSAKTTPPSVYPLAPGSAAQTNSMVTLGCLVKGYFPEPVTVTWNSGSLSSGVHTFPAVLQSDLYTLSSSVTVPSSTWPSETVTCNVAHPASSTKVDKKIVPRDCGCKPCICEVAEVEDVFIFPPKPKDVLTITLTPKVTCVVVDISKDDPEVQFSWFVDDVEVHTAQTQPREEQFNSTFRSVSELPIMHQDWLNGKEFKCRVNSAAFPAPIEKTISKTKGRPKAPQVYTIPPPKEQMAKDKVSLTCMITDFFPEDITVEWQWNGQPAENYKNTQPIMDTDGSYFVYSKLNVQKSNWEAGNTFTCSVLHEGLHNHHTEKSLSHSPGK light: not shown",127,6,21.3,,,
"H237-MB337/MRAL-k0 (antibody, mouse IgG1, kappa, copies: 2 + 2) heavy: QVQLQESGPGLVKPSETLSLTCAVSGHSISHDHAWSWVRQPPGEGLEWIGFISYSGITNYNPSLQGRVTISRDNSKNTLYLQMNSLRAEDTAVYYCARSLARTTAMDYWGEGTLVTVSSAKTTPPSVYPLAPGSAAQTNSMVTLGCLVKGYFPEPVTVTWNSGSLSSGVHTFPAVLQSDLYTLSSSVTVPSSTWPSETVTCNVAHPASSTKVDKKIVPRDCGCKPCICEAPEVEDVFIFPPKPKDVLTITLTPKVTCVVVDISKDDPEVQFSWFVDDVEVHTAQTQPREEQFNSTFRSVSELPIMHQDWLNGKEFKCRVNSAAFPAPIEKTISKTKGRPKAPQVYTIPPPKEQMAKDKVSLTCMITDFFPEDITVEWQWNGQPAENYKNTQPIMDTDGSYFVYSKLNVQKSNWEAGNTFTCSVLHEGLHNHHTEKSLSHSPGK light: not shown",73.4,4.6,16,,,

# Other lines, results leading:
relative mFcγRII-binding activity (mIgG1 = 1) [1],relative mFcγRIII-binding activity (mIgG1 = 1) [2],relative I/A (mFcγRII selectivity) (mIgG1 = 1) [3],Kd [1] [nM],Kd [2] [nM],I/A (mFcγRII selectivity) [3],Binder
221,9.9,22.4,0.952,28.6,30,"H237-MB340/MRAL-k0 (antibody, mouse IgG1, kappa, copies: 2 + 2) heavy: QVQLQESGPGLVKPSETLSLTCAVSGHSISHDHAWSWVRQPPGEGLEWIGFISYSGITNYNPSLQGRVTISRDNSKNTLYLQMNSLRAEDTAVYYCARSLARTTAMDYWGEGTLVTVSSAKTTPPSVYPLAPGSAAQTNSMVTLGCLVKGYFPEPVTVTWNSGSLSSGVHTFPAVLQSDLYTLSSSVTVPSSTWPSETVTCNVAHPASSTKVDKKIVPRDCGCKPCICEAWEVEDVFIFPPKPKDVLTITLTPKVTCVVVDISKDDPEVQFSWFVDDVEVHTAQTQPREEQFNSTFRSVSELPIMHQDWLNGKEFKCRVNSAAFPAPIEKTISKTKGRPKAPQVYTIPPPKEQMAKDKVSLTCMITDFFPEDITVEWQWNGQPAENYKNTQPIMDTDGSYFVYSKLNVQKSNWEAGNTFTCSVLHEGLHNHHTEKSLSHSPGK light: not shown"
114,4.1,27.7,,,,"H237-MB358/MRAL-k0 (antibody, mouse IgG1, kappa, copies: 2 + 2) heavy: QVQLQESGPGLVKPSETLSLTCAVSGHSISHDHAWSWVRQPPGEGLEWIGFISYSGITNYNPSLQGRVTISRDNSKNTLYLQMNSLRAEDTAVYYCARSLARTTAMDYWGEGTLVTVSSAKTTPPSVYPLAPGSAAQTNSMVTLGCLVKGYFPEPVTVTWNSGSLSSGVHTFPAVLQSDLYTLSSSVTVPSSTWPSETVTCNVAHPASSTKVDKKIVPRDCGCKPCICEAAEVEDVFIFPPKPKDVLTITLTPKVTCVVVDISKDDPEVQFSWFVDDVEVHTAQTQPREEQFNSTFRSVSELPIMHQDWLNGKEFKCRVNSAAFPAPIEKTISKTKGRPKAPQVYTIPPPKEQMAKDKVSLTCMITDFFPEDITVEWQWNGQPAENYKNTQPIMDTDGSYFVYSKLNVQKSNWEAGNTFTCSVLHEGLHNHHTEKSLSHSPGK light: not shown"
42.2,2.6,16.5,,,,"H237-MB338/MRAL-k0 (antibody, mouse IgG1, kappa, copies: 2 + 2) heavy: QVQLQESGPGLVKPSETLSLTCAVSGHSISHDHAWSWVRQPPGEGLEWIGFISYSGITNYNPSLQGRVTISRDNSKNTLYLQMNSLRAEDTAVYYCARSLARTTAMDYWGEGTLVTVSSAKTTPPSVYPLAPGSAAQTNSMVTLGCLVKGYFPEPVTVTWNSGSLSSGVHTFPAVLQSDLYTLSSSVTVPSSTWPSETVTCNVAHPASSTKVDKKIVPRDCGCKPCICEDPEVEDVFIFPPKPKDVLTITLTPKVTCVVVDISKDDPEVQFSWFVDDVEVHTAQTQPREEQFNSTFRSVSELPIMHQDWLNGKEFKCRVNSAAFPAPIEKTISKTKGRPKAPQVYTIPPPKEQMAKDKVSLTCMITDFFPEDITVEWQWNGQPAENYKNTQPIMDTDGSYFVYSKLNVQKSNWEAGNTFTCSVLHEGLHNHHTEKSLSHSPGK light: not shown"
159,6.2,25.6,,,,"H237-MB367/MRAL-k0 (antibody, mouse IgG1, kappa, mIgG1 with T230E/V231A/P232N/S238E/S239D (EU); copies: 2 + 2) heavy: QVQLQESGPGLVKPSETLSLTCAVSGHSISHDHAWSWVRQPPGEGLEWIGFISYSGITNYNPSLQGRVTISRDNSKNTLYLQMNSLRAEDTAVYYCARSLARTTAMDYWGEGTLVTVSSAKTTPPSVYPLAPGSAAQTNSMVTLGCLVKGYFPEPVTVTWNSGSLSSGVHTFPAVLQSDLYTLSSSVTVPSSTWPSETVTCNVAHPASSTKVDKKIVPRDCGCKPCICEANEVEDVFIFPPKPKDVLTITLTPKVTCVVVDISKDDPEVQFSWFVDDVEVHTAQTQPREEQFNSTFRSVSELPIMHQDWLNGKEFKCRVNSAAFPAPIEKTISKTKGRPKAPQVYTIPPPKEQMAKDKVSLTCMITDFFPEDITVEWQWNGQPAENYKNTQPIMDTDGSYFVYSKLNVQKSNWEAGNTFTCSVLHEGLHNHHTEKSLSHSPGK light: not shown"
